Results reported in paper PMC8095197 (bioRxiv, 2021).

Target: SARS-CoV-2 spike (SARS-CoV-2, reference (Wuhan-Hu-1) …, UniProt P0DTC2)
Assay: ELISA

B1: DH1047 IgG (antibody, V domains shown)
VH: QVQLVQSGAEVKKPGASVQVSCQASANTFTNHYIHWVRQAPGQGLEWMGIIYPTGGNTIYAQGFQGRVTMTRDTSLNTIYLELSSLRSEDTAVYYCARDVRVDDSWSGYDLLSGGTYFDYWGQGTLVTVSS
VL: not shown
B1: binds.
